In the experiment the target is PAC1 receptor expressed in Chinese hamster ovary (CHO) cells (UniProt P41586). Briefly: cell-based or functional assay.
UniProt P41586, sequence (P41586 21-468 limits assumed): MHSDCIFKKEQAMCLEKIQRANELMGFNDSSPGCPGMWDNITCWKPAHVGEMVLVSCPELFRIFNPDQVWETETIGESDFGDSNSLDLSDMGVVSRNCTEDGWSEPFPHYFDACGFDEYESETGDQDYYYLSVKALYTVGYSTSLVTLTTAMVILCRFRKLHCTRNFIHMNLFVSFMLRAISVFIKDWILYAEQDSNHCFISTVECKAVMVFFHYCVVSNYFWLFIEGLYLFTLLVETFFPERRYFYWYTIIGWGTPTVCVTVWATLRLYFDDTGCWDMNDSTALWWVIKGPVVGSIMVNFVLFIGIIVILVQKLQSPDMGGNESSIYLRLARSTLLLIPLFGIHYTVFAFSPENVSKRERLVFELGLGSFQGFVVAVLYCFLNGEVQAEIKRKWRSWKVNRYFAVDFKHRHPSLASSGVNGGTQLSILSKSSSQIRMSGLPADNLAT

With “PACAP(6-38)NH2 (from UniProt P18509 87-119) (peptide)”, the inhibition of PACAP27-stimulated GTPγ-35S binding to membranes of PAC1-expressing CHO cells, IC50 worked out at 100 nM.

Values taken from patent US20100112601A1.
